# Laboratory results as given in article PMC11790958 (The EMBO Journal, 2024).
# No end group written: not given here. *: point of attachment. 5FAM = O=C1OC2(c3ccc(O)cc3Oc3cc(O)ccc32)c2ccc(C(=O)*)cc21; 5‑FAM = 5-carboxyfluorescein label
# How the values were obtained:
# yeast condensin pentamer = target: T1, yeast condensin pentamer (S. cerevisiae, UniProt P38989 1-1170; Q12267 1-1418; P38170 1-754; Q06156 1-1176; Q06680 1-1035); experiment: fluorescence polarisation; 100 nM 5-FAM labelled peptide, protein or complex titrated; 20 mM HEPES pH 8, 150 mM KCl, 2.5 mM MgCl, 5% glycerol, 1 mM DTT; room temperature, 15 min; settings: both partners purified
# T1 construct: Smc2, S. cerevisiae condensin subunit; Smc4, S. cerevisiae condensin subunit; Brn1, S. cerevisiae condensin kleisin subunit; Ycs4, S. cerevisiae condensin HAWK subunit; Ycg1, S. cerevisiae condensin HAWK subunit; also called ScCondensin Pentamer; pentameric yeast condensin; source: purified as described previously (Martínez-García et al, 2022; Lee et al, 2020); copies: + + + +
# [1] = target: T2, human condensin I pentamer, wild type (human, UniProt O95347 1-1197; Q9NTJ3 1-1288; Q15003 1-741; Q15021 1-1401; Q9BPX3 1-1015); experiment: as above; settings: both partners purified
# T2 construct: SMC2, human condensin I subunit; SMC4, human condensin I subunit; NCAPH, human condensin I kleisin subunit; NCAPD2, human condensin I HAWK subunit; NCAPG, human condensin I HAWK subunit; The complex carries a strep tag; also called CI; CIWT; source: Sf9 insect cells (baculovirus), co-expressed, purified (StrepTrap, heparin, SEC); copies: + + + +
binder,measurement,setting,value
"TRTKKLFKNAIVNNLSDENST (also: 5-FAM label, end not given here, Sgo1, yeast shugoshin, residues 503-523, SLiM; also called Sgo peptide; source: synthetic peptide; bought: Genscript) [5-FAM Sgo1(503-523) peptide]",Kd,yeast condensin pentamer,4 ± 0.3 µM
"5FAM-SAEMTEDETPKKTTPILRASARR (NCAPD2, human condensin I HAWK subunit, residues 1376-1398 (C-terminal SLiM); also called 5-FAM-NCAPD2(1376-1398); F-NCAPD2-C(1376-1398); source: synthetic peptide; bought: Genscript) [5-FAM NCAPD2-C(1376-1398) peptide]",binding result,[1],binds
{5‑FAM}-NKKRKLTKQRIATLPNSDEEL (also called 5-FAM Lrs4(317-339); Lrs4 peptide; source: synthetic peptide; bought: Genscript) [5-FAM Lrs4(317-337) peptide],Kd,yeast condensin pentamer,12.9 ± 2.5 µM
"5FAM-PGKKKKRALASNTSFFSGCSPIE (KIF4A, chromokinesin, residues 1206-1228 (C-terminal tail SLiM); also called 5-FAM-KIF4A(1206-1228); 5-FAM labelled KIF4A; source: synthetic peptide; bought: Genscript) [5-FAM-KIF4A WT(1206-1228) peptide]",Kd,[1],17.7 µM
